# Laboratory results reported in PMC8854672, “Tracing transport of protein aggregates in microgravity versus unit gravity crystallization” (NPJ Microgravity, 2022).
# Values joined by “and” are separate entries in the source; they are usually repeats but may differ in a detail not shown here. Identical values can stand only once.
# Target: the molecule itself
# Test: SEC; preparative HiLoad 26/600 Superdex 200 column after glutathione affinity chromatography; tetramer V_elution about 170 mL
protein,measurement,value
"Plasmodium falciparum glutathione-S-transferase (enzyme, UniProt Q8ILQ7 1-211, looked up, glutathione S-transferase of Plasmodium falciparum; recombinant; printed M.W. of the dimer ~56 kDa; Found as dimer and as tetramer; The dimer for crystallization was eluted with and stabilised by 10 mM S-(p-bromobenzyl)-GSH; The tetramer was labelled with Alexa Fluor 488 only after SEC and DLS; also called PfGST) MGDNIVLYYFDARGKAELIRLIFAYLGIEYTDKRFGVNGDAFVEFKNFKKEKDTPFEQVPILQIGDLILAQSQAIVRYLSKKYNICGESELNEFYADMIFCGVQDIHYKFNNTNLFKQNETTFLNEDLPKWSGYFEKLLKKNHTNNNNDKYYFVGNNLTYADLAVFNLYDDIETKYPSSLKNFPLLKAHNEFISNLPNIKNYITNRKESVY",stoichiometry N,2 and 4
